B1: Clostripain (Cp; EC 3.4.22.8, from Worthington or Sigma C7403) (protein)
chain: NKNQKVTIMYYCDADNNLEGSLLNDIEEMKTGYKDSPNLNLIALVDRSPRYSSDEKVLGEDFSDTRLYKIEHNKANRLDGKNEFPEISTTSKYEANMGDPEVLKKFIDYCKSNYEADKYVLIMANHGGGAREKSNPRLNRAICWDDSNLDKNGEADCLYMGEISDHLTEKQSVDLLAFDACLMGTAEVAYQYRPGNGGFSADTLVASSPVVWGPGFKYDKIFDRIKAGGGTNNEDDLTLGGKEQNFDPATITNEQLGALFVEEQRDSTHANGRYDQHLSFYDLKKAESVKRAIDNLAVNLSNENKKSEIEKLRGSGIHTDLMHYFDEYSEGEWVEYPYFDVYDLCEKINKSENFSSKTKDLASNAMNKLNEMIVYSFGDPSNNFKEGKNGLSIFLPNGDKKYSTYYTSTKIPHWTMQSWYNSIDTVKYGLNPYGKLSWCKDGQDPEINKVGNWFELLDSWFDKTNDVTGGVNHYQW
B2: BACE enzyme (refolded recombinant BACE as used in the fluorimetric activity assay) (protein)
chain: LPRETDEEPEEPGRRGSFVEMVDNLRGKSGQGYYVEMTVGSPPQTLNILVDTGSSNFAVGAAPHPFLHRYYQRQLSSTYRDLRKGVYVPYTQGKWEGELGTDLVSIPHGPNVTVRANIAAITESDKFFINGSNWEGILGLAYAEIARPDDSLEPFFDSLVKQTHVPNLFSLQLCGAGFPLNQSEVLASVGGSMIIGGIDHSLYTGSLWYTPIRREWYYEVIIVRVEINGQDLKMDCKEYNYDKSIVDSGTTNLRLPKKVFEAAVKSIKAASSTEKFPDGFWLGEQLVCWQAGTTPWNIFPVISLYLMGEVTNQSFRITILPQQYLRPVEDVATSQDDCYKFAISQSSTGTVMGAVIMEGFYVVFDRARKRIGFAVSACHVHDEFRTAAVEGPFVTLDMEDCGYNIPQTDES

Tests used:
[1] = biological target: BACE N->Q R56KR57K no His

Row | Protein | Cleavage position (ESI-TOF-MS), first intermediate fragment at 30-60 minutes post activation, observed parent mass 45838.30 [1] | Cleavage position (ESI-TOF-MS), fragment formed on digestion beyond 60 minutes, observed parent mass 44228.03 [1] | Cleavage position (ESI-TOF-MS), final fragment, observed parent mass 46655 (BACE N->Q R56KR57K) | Cleavage position (ESI-TOF-MS), final fragment, observed parent mass 45783 (BACE WT R56KR57K) | Cleavage position (ESI-TOF-MS), first intermediate fragment (BACE WT R56KR57K) | activity (fluorimetric assay with the fluorescent peptide R-E(EDANS)-E-V-N-L-*D-A-E-F-K(DABCYL)-R-OH as substrate) (OM 99)
1 | B1 | MASMTGGQQMGRGSMAGVLPAHGTQHGIRLPLRSGLGGAPLGLR ↓ | EEPEEPGK ↓ KGSFVEMV . . . | MASMTGGQQMGRGSMAGVLPAHGTQHGIRLPLRSGLGGAPLGLR↓ | MASMTGGQQMGRGSMAGVLPAHGTQHGIRLPLRSGLGGAPLGLR↓ | MASMTGGQQMGR⇓GSMAGVLPAHGT . . . | 
2 | B2 |  |  |  |  |  | 1 mM OM 99 completely inhibits activity.
